Laboratory results: patent publication US20250313635A1, “ANTI-INTEGRIN ANTIBODIES AND USES THEREOF” (Merck Sharp & Dohme LLC, priority 2022, published 2025)

These binders were tested against recombinant mouse αvβ8 integrin extracellular domains (mouse) (UniProt P43406) (assay: AlphaLISA blocking of mouse LAP-6His binding).
Sequence of recombinant mouse αvβ8 integrin extracellular domains (mouse) (P43406 other isoform, or with tags, fused parts or gaps, form in doubt, chain 1 of 2): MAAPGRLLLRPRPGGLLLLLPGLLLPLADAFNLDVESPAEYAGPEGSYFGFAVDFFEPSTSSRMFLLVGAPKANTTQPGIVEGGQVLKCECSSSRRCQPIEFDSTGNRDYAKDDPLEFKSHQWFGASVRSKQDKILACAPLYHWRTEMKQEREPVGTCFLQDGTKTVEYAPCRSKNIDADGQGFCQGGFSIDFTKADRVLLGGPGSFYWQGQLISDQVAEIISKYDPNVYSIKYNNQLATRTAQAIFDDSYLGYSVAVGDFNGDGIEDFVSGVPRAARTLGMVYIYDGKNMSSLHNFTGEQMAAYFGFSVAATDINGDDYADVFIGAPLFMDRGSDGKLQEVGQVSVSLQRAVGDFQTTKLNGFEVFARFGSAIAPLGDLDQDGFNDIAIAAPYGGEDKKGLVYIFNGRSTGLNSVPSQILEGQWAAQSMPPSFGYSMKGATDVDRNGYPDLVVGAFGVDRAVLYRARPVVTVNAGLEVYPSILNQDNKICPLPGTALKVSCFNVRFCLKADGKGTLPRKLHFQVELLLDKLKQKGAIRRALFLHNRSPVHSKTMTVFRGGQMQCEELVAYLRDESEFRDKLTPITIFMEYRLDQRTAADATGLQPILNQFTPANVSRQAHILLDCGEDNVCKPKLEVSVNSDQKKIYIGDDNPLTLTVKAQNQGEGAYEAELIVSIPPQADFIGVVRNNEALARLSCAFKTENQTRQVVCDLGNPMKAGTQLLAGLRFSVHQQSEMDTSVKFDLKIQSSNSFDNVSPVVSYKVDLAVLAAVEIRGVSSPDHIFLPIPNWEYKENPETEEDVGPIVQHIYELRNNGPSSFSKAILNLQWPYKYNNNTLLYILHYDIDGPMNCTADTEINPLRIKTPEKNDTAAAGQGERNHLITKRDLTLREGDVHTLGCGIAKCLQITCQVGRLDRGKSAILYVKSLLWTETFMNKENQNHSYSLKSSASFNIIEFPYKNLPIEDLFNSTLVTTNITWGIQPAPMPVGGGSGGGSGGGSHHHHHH
Sequence of recombinant mouse αvβ8 integrin extracellular domains (mouse) (Q0VBD0 other isoform, or with tags, fused parts or gaps, form in doubt, chain 2 of 2, further chain): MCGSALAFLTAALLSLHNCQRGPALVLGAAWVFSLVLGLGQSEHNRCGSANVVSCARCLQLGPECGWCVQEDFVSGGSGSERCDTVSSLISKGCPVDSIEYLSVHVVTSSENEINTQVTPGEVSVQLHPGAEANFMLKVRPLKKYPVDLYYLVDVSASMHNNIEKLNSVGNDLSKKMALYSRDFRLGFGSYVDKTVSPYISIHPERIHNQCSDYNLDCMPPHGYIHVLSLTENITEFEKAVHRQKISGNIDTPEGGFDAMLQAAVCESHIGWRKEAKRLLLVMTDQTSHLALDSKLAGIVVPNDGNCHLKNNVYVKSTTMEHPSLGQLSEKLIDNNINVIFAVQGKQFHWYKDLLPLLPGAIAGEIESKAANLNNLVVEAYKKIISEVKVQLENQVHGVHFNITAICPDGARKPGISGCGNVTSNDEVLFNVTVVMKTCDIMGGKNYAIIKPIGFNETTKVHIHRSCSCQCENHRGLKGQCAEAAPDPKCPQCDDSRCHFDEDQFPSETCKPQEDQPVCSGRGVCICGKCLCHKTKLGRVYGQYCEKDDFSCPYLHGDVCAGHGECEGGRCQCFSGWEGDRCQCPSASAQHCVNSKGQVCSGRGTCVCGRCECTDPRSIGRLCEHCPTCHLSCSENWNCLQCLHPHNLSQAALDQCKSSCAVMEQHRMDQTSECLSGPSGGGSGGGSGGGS

Binder	IC50
Ab-30 (antibody, V domains shown) VH: EVQLQESGPGLVKPSETLSLTCAVSGYSISSGYYWGWIRQPPGKGLEWIGSIYHSGNTYYNPSLKSRVTISVDTSKNQFSLKLSSVTAADTAVYYCARVPRYSRGDAYYYYGMDVWGQGTTVTVSS VL: DIQMTQSPSTLSASVGDRVTITCRASQSISSWLAWYQQKPGKAPKLLIYKASSLESGVPSRFSGSGSGTEFTLTISSLQPDDFATYYCQQVKIYPPYTFGGGTKVEIK	25.1 nM
Ab-31 (antibody, V domains shown) VH: EVQLQESGPGLVKPSETLSLTCAVSGYSISSGYYWGWIRQPPGKGLEWIGSIYHSGNTYYNPSLKSRVTISVDTSKNQFSLKLSSVTAADTAVYYCARVPRYSRGDAYYYYGMDVWGQGTTVTVSS VL: DIQMTQSPSTLSASVGDRVTITCRASQSIGSWLAWYQQKPGKAPKLLIYKASSLESGVPSRFSGSGSGTEFTLTISSLQPDDFATYYCQQSGPYPWTFGGGTKVEIK	66.3 nM
Ab-29 (antibody, V domains shown) VH: ELQLQESGPGLVKPSETLSLTCTVSGGSISSNSYYWGWIRQPPGKGLEWIGSIYYSGSTYYNPSLKSRVTISVDTSKNQFSLKLSSVTAADTAVYYCARVRRVAGRGDSYYYYYGMDVWGQGTTVTVSS VL: DIQMTQSPSSVSASVGDRVTITCRASQGISRWLAWYQQKPGKAPKLLIYAASSLQSGVPSRFSGSGSGTDFTLTISSLQPEDFATYYCQQAISHPWTFGGGTKVEIK	102 nM
